# Earlier results, collected in publication PMC12152952.
# Biological target: EphA2 (ephrin type-A receptor 2) (UniProt P29317)
# Settings: 2'-fluoro on lowercase residues (all C and U; 2'-F pyrimidines), A and G are ribo
# EphA2 (ephrin type-A receptor 2), sequence (P29317 24-537): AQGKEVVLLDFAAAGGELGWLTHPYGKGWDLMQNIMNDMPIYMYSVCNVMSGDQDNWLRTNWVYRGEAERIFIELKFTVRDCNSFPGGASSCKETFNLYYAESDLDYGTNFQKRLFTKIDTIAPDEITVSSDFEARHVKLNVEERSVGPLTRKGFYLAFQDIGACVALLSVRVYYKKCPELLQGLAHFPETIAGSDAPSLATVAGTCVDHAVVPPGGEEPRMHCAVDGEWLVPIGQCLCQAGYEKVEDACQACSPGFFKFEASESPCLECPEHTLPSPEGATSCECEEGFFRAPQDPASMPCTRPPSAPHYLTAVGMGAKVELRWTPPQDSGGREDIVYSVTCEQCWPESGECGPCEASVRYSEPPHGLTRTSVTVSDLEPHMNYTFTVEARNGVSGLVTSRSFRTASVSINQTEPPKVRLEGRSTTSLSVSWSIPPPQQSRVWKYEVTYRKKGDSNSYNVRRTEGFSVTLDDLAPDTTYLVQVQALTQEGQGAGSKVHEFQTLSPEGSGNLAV
sequence,measurement,value
CCUGUUGUUCGACAGGAGGCUCACAACAGG [A40s],Kd,0.76 nM
